# Source: the supplement of paper PMC12338614
# ± gives the uncertainty stated by the source.
# B1: library; numbered along this chain (parent)
# chain: MEVVDPQQLGMFTEGELMSVGMDTFIHRIDSTEVIYQPRRKRAKLIGKYLMGDLLGEGSYGKVKEVLDSETLCRRAVKILKKKKLRRIPNGEANVKKEIQLLRRLRHKNVIQLVDVLYNEEKQKMYMVMEYCVCGMQEMLDSVPEKRFPVCQAHGYFCQLIDGLEYLHSQGIVHKDIKPGNLLLTTGGTLKISDLGVAEALHPFAADDTCRTSQGSPAFQPPEIANGLDTFSGFKVDIWSAGVTLYNITTGLYPFEGDNIYKLFENIGKGSYAIPGDCGPPLSDLLKGMLEYEPAKRFSIRQIRQHSWFRKKHPPAEAPVPIPPSPDTKDRWRSMTVVPYLEDLHGADEDEDLFDIEDDIIYTQDFTVPGQVPEEEASHNGQRRGLPKAVCMNGTEAAQLSTKSRAEGRAPNPARKACSASSKIRRLSACKQQ
# Variants of: B1
# Test: STK11 functional score (HeLa growth suppression), rescaled enrichment; synonymous median = 1, nonsense median = 0 (normalised score)
# Settings: with HeLa; variant type: missense
# Procedure: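 Deep mutational scan (TileSeq/POPCode codon randomisation) of full-length codon-optimised STK11 cDNA integrated at a Bxb1 landing pad (AAVS1) in HeLa cells. Restoring functional STK11 suppresses HeLa proliferation. Variant frequencies were measured by NGS before and after about two weeks of growth. The error-corrected enrichment log-ratio was rescaled so that synonymous median = 1 and nonsense median = 0, scores above 1 were compressed, and codon-level and three biological replicate scores were combined; error is the bootstrapped standard error. Scale: synonymous median = 1, nonsense median = 0; below 0.5 = damaging.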
row,Variant,STK11 functional score
1,A76L,-0.332 ± 0.077
2,K122C,1.46 ± 0.36
3,G180R,0.948 ± 0.5
4,M51S,0.844 ± 0.24
5,M289V,0.966 ± 0.44
6,S213V,1.02 ± 0.12
7,T367V,1.58 ± 0.26
8,E33S,0.81 ± 0.15
9,Q37F,0.309 ± 0.29
10,Q152P,0.0642 ± 0.62
11,I361T,1.58 ± 0.47
12,G288C,0.989 ± 0.45
13,D208Y,0.93 ± 0.38
14,Q432D,1.46 ± 0.21
15,A76R,-0.417 ± 0.081
16,F354M,1.51 ± 0.23
17,N109R,0.707 ± 0.08
18,T328A,1.62 ± 0.16
19,E16K,0.291 ± 0.28
20,K122M,1.25 ± 0.6
21,G188V,0.388 ± 0.11
22,L427S,1.55 ± 0.11
23,S271D,1.64 ± 0.2
24,A43Q,-0.492 ± 0.15

row,Variant,STK11 functional score
1,W239V,-0.13 ± 0.092
2,P217A,1.25 ± 0.66
3,A347S,1.42 ± 0.18
4,A389E,1.52 ± 0.17
5,K146H,1.49 ± 0.46
6,A205W,1.7 ± 0.38
7,I35T,1.34 ± 0.71
8,L286Q,0.0782 ± 0.082
9,S142N,1.16 ± 0.33
10,Y118P,1.3 ± 0.14
11,F157M,0.503 ± 0.088
12,V372D,1.53 ± 0.33
13,Y253E,1 ± 0.41
14,V133T,1 ± 0.41
15,I35N,1.02 ± 0.76
16,T189Y,0.71 ± 0.92
17,Q152L,0.195 ± 0.69
18,K262R,1.18 ± 0.47
19,Q7E,1.27 ± 0.34
20,H27S,0.805 ± 0.23
21,V114F,1.03 ± 0.12
22,G408V,1.2 ± 0.11
23,K388Q,1.21 ± 0.43
24,K82V,0.966 ± 0.26

row,Variant,STK11 functional score
1,A198F,0.731 ± 0.25
2,S232L,0.996 ± 0.2
3,D343N,1.02 ± 0.59
4,G408K,1.56 ± 0.24
5,E65S,1.55 ± 0.19
6,P294D,0.708 ± 0.1
7,S307F,1.38 ± 0.1
8,N94E,0.862 ± 0.32
9,P89Q,1.4 ± 0.12
10,I322Y,0.925 ± 0.36
11,T336D,0.148 ± 0.11
12,L72S,0.585 ± 0.22
13,I79F,0.321 ± 0.076
14,Y261A,1.25 ± 0.43
15,D358I,1.15 ± 0.46
16,D115N,1.65 ± 0.37
17,D208G,1.37 ± 0.23
18,S283D,1.29 ± 0.4
19,N94C,1.1 ± 0.2
20,Q7C,1.55 ± 0.45
21,P373E,1.51 ± 0.31
22,G91M,0.64 ± 0.2
23,S428F,1.61 ± 0.12
24,N109K,1.14 ± 0.19

row,Variant,STK11 functional score
1,P179Y,0.059 ± 0.1
2,C210I,1.12 ± 0.19
3,E357T,1.56 ± 0.17
4,Q371E,1.26 ± 0.48
5,S193Y,-0.104 ± 0.094
6,D53W,0.204 ± 0.082
7,E293W,1.07 ± 0.23
8,K97W,0.46 ± 0.082
9,K178L,0.63 ± 0.1
10,G276I,0.493 ± 0.26
11,V77G,0.0665 ± 0.079
12,L9Y,1.56 ± 0.37
13,T71W,1.13 ± 0.14
14,T32S,1.45 ± 0.21
15,V243W,0.598 ± 0.099
16,D284L,0.935 ± 0.21
17,A414I,1.33 ± 0.28
18,S428Y,1.39 ± 0.16
19,K122N,1.51 ± 0.3
20,K312N,1.58 ± 0.43
21,M51H,1.68 ± 0.32
22,P373G,1.53 ± 0.25
23,G408M,1.56 ± 0.17
24,E342T,1.58 ± 0.15

row,Variant,STK11 functional score
1,I360S,1.11 ± 0.38
2,G58P,0.174 ± 0.093
3,G163S,0.402 ± 0.13
4,A397Y,1.38 ± 0.46
5,Y166C,0.804 ± 0.08
6,V128L,0.945 ± 0.1
7,F255R,0.632 ± 0.2
8,T230A,0.88 ± 0.11
9,Q364P,1.4 ± 0.27
10,G61A,1.35 ± 0.32
11,S421T,1.12 ± 0.41
12,P89C,1.29 ± 0.072
13,R384P,1.56 ± 0.24
14,K81P,0.992 ± 0.18
15,S169G,1.29 ± 0.33
16,N259E,1.47 ± 0.34
17,Y261H,0.771 ± 0.86
18,S419N,1.54 ± 0.13
19,L285F,0.988 ± 0.25
20,Q123D,0.981 ± 0.62
21,E317I,1.55 ± 0.19
22,E14I,1.4 ± 0.14
23,G180N,1.39 ± 0.47
24,Q123R,0.312 ± 0.081

row,Variant,STK11 functional score
1,K44F,1.34 ± 0.26
2,N412G,1.63 ± 0.15
3,I35E,1.66 ± 0.16
4,R106F,1.56 ± 0.17
5,K269V,1.22 ± 0.43
6,G268Q,1.26 ± 0.61
7,P387T,1.56 ± 0.24
8,C418R,1.54 ± 0.13
9,S59V,1.55 ± 0.22
10,A406W,1.46 ± 0.11
11,A153F,0.0706 ± 0.09
12,D352C,1.34 ± 0.34
13,Q382M,1.52 ± 0.27
14,N181D,-0.134 ± 0.054
15,P281F,1.23 ± 0.2
16,M392I,1.42 ± 0.52
17,G251L,-0.144 ± 0.1
18,L117A,1.27 ± 0.31
19,F366R,1.52 ± 0.17
20,W239C,0.0722 ± 0.1
21,C210T,1.35 ± 0.19
22,I177M,0.6 ± 0.17
23,E349T,1.51 ± 0.13
24,G270C,1.41 ± 0.31

row,Variant,STK11 functional score
1,S216K,-0.0726 ± 0.095
2,E396T,1.08 ± 0.61
3,P203H,0.686 ± 0.62
4,A397H,1.64 ± 0.3
5,G56M,1 ± 0.093
6,D352L,1.62 ± 0.15
7,V110P,0.481 ± 0.081
8,V20G,1.43 ± 0.12
9,G135T,1.66 ± 0.28
10,I361F,0.984 ± 0.13
11,T32L,1.16 ± 0.37
12,G242F,0.0262 ± 0.098
13,I248P,-0.0931 ± 0.13
14,G394D,1.32 ± 0.1
15,P149N,1.38 ± 0.22
16,V128Y,1.41 ± 0.23
17,R28G,0.685 ± 0.16
18,C210S,0.964 ± 0.59
19,V133W,0.452 ± 0.079
20,I88R,1.65 ± 0.19
21,V63E,0.189 ± 0.41
22,V95C,0.913 ± 0.28
23,G56T,0.231 ± 0.097
